Series [1] has as its system His228 (position 228, SCDKTHTCPPC).
For series [2], the system named is His57 (position 57, TWNSGHIDYAD).
Series [3] concerns His289 (position 289, DGVEVHNAKTK).
Series [4] relates to His272 (position 272, VVDVSHEDPEV).

Turning to “Adalimumab (therapeutic monoclonal IgG1 kappa antibody, anti-TNF) (Homo sapiens (recombinant fully human antibody))”, the pKa in series [1] came to 6.4; in series [2], 6.9; in series [3], 6.2; in series [4] it was 7.0.

The values above are taken from PMC7156388.
